Measurements published in the supplement of paper PMC7877785.
± gives the uncertainty stated by the source.

Test: self-splicing fitness, log relative to wild type (ln ratio); higher = more splicing; Tetrahymena group I intron in knt gene, E. coli kanamycin selection, DiMSum; sequences stand for … in CUCUCU…GGAGGGAAAAGUUAUCAGGCAUGCACCUGGUAGCUAGUCUUUAAACCAAUAGAUUGCAUCGGUUUAAAAGGCAAGACCGUCAAAUUGCGGGAAAGGGGUCAACAGCCGUUCAGUACCAAGUCUCAGGGGAAACUUUGAGAUGGCCUUGCAAAGGGUAUGGUAAUAAGCUGACGGACAUGGUCCUAACCACGCAGCCAAGUCCUAAGUCAACAGAUCUUCUGUUGAUAUGGAUGCAGUUCACAGACUAAAUGUCGGUCGGGGAAGAUGUAUUCUUCUCAUAAGAUAUAGUCGGACCUCUCCUUAAUGGGAGCUAGCGGAUGAAGUGAUGCAACACUGGAGCCGCUGGGAACUAAUUUGUAUGCGAAAGUAUAUUGAUUAGUUUUGGAGUACUCGUGGUCG
Procedure, shortened: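 Colonies from six replicate transformations of E. coli BL21(DE3) were pooled and amplicon-sequenced on an Illumina HiSeq 2500. The library placed an intron with all eight P1ex-region nucleotides randomised inside the knt kanamycin-resistance gene on pET-22b(+), and cells grew overnight at 37°C or 30°C on LB agar with or without 25 μg/mL kanamycin (plus 100 μg/mL carbenicillin, 50 μM IPTG, 0.2% rhamnose). Fitness is the DiMSum error-weighted combination of wild-type-normalised replicate fold changes, kanamycin versus none.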

Sequence | self-splicing fitness (ln) (30 °C) | self-splicing fitness (ln) (37 °C)
CGGAAGCAAUAUUACGGGUC | -3.78 ± 0.19 | -2.59 ± 0.21
CGGAAGCAAUAUUACGGUAA | -3.11 ± 0.23 | -2.23 ± 0.24
CGGAAGCAAUAUUACGGUAC | -3.17 ± 0.27 | -1.93 ± 0.25
CGGAAGCAAUAUUACGUAUU | -3.43 ± 0.28 | -3.37 ± 0.37
CGGAAGCAAUAUUACGUCUC | -4.07 ± 0.39 | -2.3 ± 0.19
CGGAAGCAAUAUUACGUCUU | -1.67 ± 0.083 | -0.53 ± 0.092
CGGAAGCAAUAUUACGUGUC | -3.44 ± 0.28 | -1.94 ± 0.31
CGGAAGCAAUAUUACGUUAU | -3.02 ± 0.21 | -2.3 ± 0.28
CGGCAGCAAUAUUACGACAA | -1.99 ± 0.1 | -2.28 ± 0.18
CGGCAGCAAUAUUACGACGA | -1 ± 0.11 | -1.41 ± 0.14
CGGCAGCAAUAUUACGACGU | -1.45 ± 0.066 | -0.471 ± 0.071
CGGCAGCAAUAUUACGAUAA | -2.07 ± 0.21 | -1.96 ± 0.34
CGGCAGCAAUAUUACGAUCU | -0.274 ± 0.084 | 0.148 ± 0.11
CGGCAGCAAUAUUACGCACC | -2.89 ± 0.17 | -2.05 ± 0.23
CGGCAGCAAUAUUACGCCCU | -1.01 ± 0.39 | 0.318 ± 0.29
CGGCAGCAAUAUUACGCCUU | -0.474 ± 0.097 | -0.622 ± 0.12
CGGCAGCAAUAUUACGCUGU | -3.8 ± 0.14 | -2.29 ± 0.15
CGGCAGCAAUAUUACGGAUU | -3.9 ± 0.31 | -2.24 ± 0.21
CGGCAGCAAUAUUACGGCGA | -3.18 ± 0.16 | -2.72 ± 0.18
CGGCAGCAAUAUUACGGCUU | -0.457 ± 0.065 | 0.278 ± 0.095
CGGCAGCAAUAUUACGGUUC | -2.16 ± 0.093 | -0.799 ± 0.098
CGGCAGCAAUAUUACGUAAC | -1.24 ± 0.21 | 
CGGCAGCAAUAUUACGUACU | -0.872 ± 0.052 | -0.714 ± 0.06
CGGCAGCAAUAUUACGUUGA | -2.63 ± 0.19 | -1.8 ± 0.16
CGGCAGCAAUAUUACGUUGC | -3.03 ± 0.27 | -2.57 ± 0.33
CGGGAGCAAUAUUACGACCU | -0.87 ± 0.14 | -0.864 ± 0.18
CGGGAGCAAUAUUACGCAGC | -3.21 ± 0.24 | -2.72 ± 0.43

Sequence | self-splicing fitness (ln) (30 °C) | self-splicing fitness (ln) (37 °C)
CGGGAGCAAUAUUACGCGCC |  | -1.51 ± 0.43
CGGGAGCAAUAUUACGGAGC | -2.32 ± 0.37 | -0.632 ± 0.25
CGGGAGCAAUAUUACGGCUA | -2.44 ± 0.39 | 
CGGGAGCAAUAUUACGGGAC | -3.57 ± 0.3 | -3.25 ± 0.4
CGGGAGCAAUAUUACGGGCA |  | -1.14 ± 0.42
CGGGAGCAAUAUUACGGGGU | -2.03 ± 0.42 | 
CGGGAGCAAUAUUACGGGUG | -3.26 ± 0.28 | -2.07 ± 0.28
CGGGAGCAAUAUUACGGUAC | -2.19 ± 0.38 | 
CGGGAGCAAUAUUACGGUUU |  | -1.19 ± 0.32
CGGGAGCAAUAUUACGUAAA | -2.94 ± 0.34 | 
CGGGAGCAAUAUUACGUACU |  | -1.86 ± 0.38
CGGGAGCAAUAUUACGUCAU | -3.09 ± 0.49 | 
CGGGAGCAAUAUUACGUCCG | -1.07 ± 0.43 | 
CGGGAGCAAUAUUACGUUCA | -3.69 ± 0.25 | -2.53 ± 0.26
CGGGAGCAAUAUUACGUUUC | -3.92 ± 0.46 | 
CGGUAGCAAUAUUACGAAGA | -2.99 ± 0.42 | -2.32 ± 0.29
CGGUAGCAAUAUUACGAUUC | -2.84 ± 0.17 | -1.69 ± 0.13
CGGUAGCAAUAUUACGCAGG | -1.26 ± 0.12 | -1.44 ± 0.18
CGGUAGCAAUAUUACGCCAU | -1.58 ± 0.32 | -2.46 ± 0.39
CGGUAGCAAUAUUACGCCCA | 0.153 ± 0.1 | 0.145 ± 0.17
CGGUAGCAAUAUUACGCGCU | -3.13 ± 0.39 | 
CGGUAGCAAUAUUACGCGUU | -3.55 ± 0.31 | -2.13 ± 0.21
CGGUAGCAAUAUUACGCUCG |  | -2.91 ± 0.43
CGGUAGCAAUAUUACGGCCG | -3.76 ± 0.24 | -0.985 ± 0.2
CGGUAGCAAUAUUACGGCUU | -0.935 ± 0.087 | 0.239 ± 0.12
CGGUAGCAAUAUUACGGGCG | -0.838 ± 0.12 | 0.0595 ± 0.14
